In patent publication US7825096B2, “O6-alkylguanine-DNA alkyltransferase inactivators and beta-glucuronidase cleavable prodrugs” (The United States of America as represented by the …, priority 2004, dated 2010):

Assays:
Type in all cases: biochemical
[1] = substrate: O=C(Nc1nc(OCc2ccccc2)c2nc[nH]c2n1)OCc1ccc(O[C@@H]2O[C@H](C(=O)O)[C@@H](O)[C@H](O)[C@H]2O)c([N+](=O)[O-])c1; experiment: Enzymatic hydrolysis of prodrugs by E. coli β-glucuronidase in MOPS buffer; settings: other: E. coli β-glucuronidase, 37° C., pH 7.0
Method: (§1) The enzymatic hydrolysis of the prodrugs was investigated with both E. coli and bovine liver β-glucuronidase in MOPS buffer at pH 7.0. Prodrugs and p-nitrobenzyl alcohol (HPLC internal standard) were dissolved in the MOPS buffer (pH 7.0) at 37° C. Enzymatic cleavage was initiated by adding 0.2 Fishman units of E. coli β-glucuronidase (Sigma type IX-A) (42.8 units/mg of protein) or 10 Fishman units of bovine liver β-glucuronidase (Sigma type B-10) (10.2 units/mg of protein) to the incubation buffer. Aliquots (100 μL) of the reaction mixture were withdrawn at various times and were mixed with 100 μL of acetonitrile/0.1 M TEAA (6:4) to quench the enzymatic reaction. Prodrug and product concentrations were determined by HPLC. For determination of enzyme kinetic parameters, prodrug solutions at concentrations between 5 and 300 μM were incubated with a fixed amount of enzyme. Aliquots were withdrawn at time intervals varying from 1 to 20 min and the reactions were quenched as described above. Initial reaction velocities were determined at each substrate concentration. Non-linear regression methods were used to determine KM and Vmax values. Data were processed with Prism 3.0 software.

[2] = substrate: O=C(Nc1nc(OCc2ccccc2)c2ncn([C@H]3C[C@H](O)[C@@H](CO)O3)c2n1)OCc1ccc(O[C@@H]2O[C@H](C(=O)O)[C@@H](O)[C@H](O)[C@H]2O)c([N+](=O)[O-])c1; experiment: as above; settings: other: E. coli β-glucuronidase, 37° C., pH 7.0
Method: as §1

[3] = substrate: O=C(Nc1nc(OCc2ccccc2)c2nc[nH]c2n1)OCc1ccc(O[C@@H]2O[C@H](C(=O)O)[C@@H](O)[C@H](O)[C@H]2O)c([N+](=O)[O-])c1; experiment: Enzymatic hydrolysis of prodrugs by bovine liver β-glucuronidase in MOPS buffer; settings: other: bovine liver β-glucuronidase, 37° C., pH 7.0
Method: as §1

[4] = substrate: O=C(Nc1nc(OCc2ccccc2)c2ncn([C@H]3C[C@H](O)[C@@H](CO)O3)c2n1)OCc1ccc(O[C@@H]2O[C@H](C(=O)O)[C@@H](O)[C@H](O)[C@H]2O)c([N+](=O)[O-])c1; experiment: as above; settings: other: bovine liver β-glucuronidase, 37° C., pH 7.0
Method: as §1

B1: E. coli β-glucuronidase (Escherichia coli K-12) (protein)
chain: MLRPVETPTREIKKLDGLWAFSLDRENCGIDQRWWESALQESRAIAVPGSFNDQFADADIRNYAGNVWYQREVFIPKGWAGQRIVLRFDAVTHYGKVWVNNQEVMEHQGGYTPFEADVTPYVIAGKSVRITVCVNNELNWQTIPPGMVITDENGKKKQSYFHDFFNYAGIHRSVMLYTTPNTWVDDITVVTHVAQDCNHASVDWQVVANGDVSVELRDADQQVVATGQGTSGTLQVVNPHLWQPGEGYLYELCVTAKSQTECDIYPLRVGIRSVAVKGEQFLINHKPFYFTGFGRHEDADLRGKGFDNVLMVHDHALMDWIGANSYRTSHYPYAEEMLDWADEHGIVVIDETAAVGFNLSLGIGFEAGNKPKELYSEEAVNGETQQAHLQAIKELIARDKNHPSVVMWSIANEPDTRPQGAREYFAPLAEATRKLDPTRPITCVNVMFCDAHTDTISDLFDVLCLNRYYGWYVQSGDLETAEKVLEKELLAWQEKLHQPIIITEYGVDTLAGLHSMYTDMWSEEYQCAWLDMYHRVFDRVSAVVGEQVWNFADFATSQGILRVGGNKKGIFTRDRKPKSAAFLLQKRWTGMNFGEKPQQGGKQ
notes: purchased Sigma type IX-A
[1]
  Km: 17.0 µM
  Vmax: 466000 µmol/mg/h
[2]
  Km: 41.1 µM
  Vmax: 677000 µmol/mg/h

B2: bovine liver β-glucuronidase (Bos taurus) (protein)
chain: MLRGSAGAWAVLGPLLWGCGLSLLQGGMLYPRESRSRERKELDGLWSFRADFSDNRRQGFEQQWYRAPLRESGPTLDMPVPSSFNDVGQDGQLRSFVGWVWYEREITLPQRWTEDLGTRVVLRIGSAHYYAIVWVNGVHVLEHEGGHLPFEADISKLVQSGPLSSCRITIAINNTLSPHTLPPGTILYKTDPSMYPKGYFVQNTKFDFFNYAGLHRSVLLYTTPTTYIDDITVTTDMDQDIGLVNYQIIVQGSDHFQVDVSLLDEEGKVMAKGAGAEGQLQVPSAHLWWPYLMHEHPAYLYSLEVKLTAQTAVGPVSDFYTLPVGIRTVAVTKSQFLINGKPFYFRGVNKHEDADIRGKGFDWPLLVKDFNLLRWLGANAFRTSHYPYSEEVLQLCDRYGIVVIDESPGVGIVLVESFSNVSLQHHLEVMEEMIRRDKNHPAVVMWSLANEPASFLKPAGYYFKTLIAHTKALDPSRPVTFVTNTNYEADLGAPYVDIICVNSYYSWYHDYGHMEVIQLQLATQFENWYKAYQKPMIQSEYGADAIEGFHEDPPLMFSEEYQKGLLQQYHVVLDQKRKEYVVGELIWNFADFMTNQSPVRMIGNRKGIFTRQRQPKSAAFLLRERYWKLANETRYQRSAVTSQCVGSGLFTV
notes: bovine liver β-glucuronidase (Sigma type B-10) (10.2 units/mg of protein); purchased Sigma type B-10; host or cells: bovine liver
[3]
  Km: 244 µM
[4]
  Km: 362 µM
